Reference: paper PMC9271825

B1: Human Claudin-7 (Cldn7), wild type, His-tagged [human] / itself (parent)
chain: MANSGLQLLGFSMALLGWVGLVACTAIPQWQMSSYAGDNIITAQAMYKGLWMDCVTQSTGMMSCKMYDSVLALSAALQATRALMVVSLVLGFLAMFVATMGMKCTRCGGDDKVKKARIAMGGGIIFIVAGLAALVACSWYGHQIVTDFYNPLIPTNIKYEFGPAIFIGWAGSALVILGGALLSCSCPGNESKAGYRVPRSYPKSNSSKEYV

Variants of: B1
Assay: solubilization/centrifugation assay with SDS-PAGE densitometry
Details: p-buffer, n = 9, read off a plot

screen value (0 mM NaCl) | screen value (300 mM NaCl) | Variant
0.7 a.u. | 0.82 a.u. | MANSGLQLLGFSMALLGWVGLVACTAIPQWQMSSYAGDNIITAQAMYKGLWMDCVTQSTGMMSCKMYDSVLALSAALQATAALMVVSLVLGFLAMFVATMGMKCTRCGGDDKVKKARIAMGGGIIFIVAGLAALVACSWYGHQIVTDFANPLIPTNIKYEFGPAIFIGWAGSALVILGGALLSCSCPGNESKAGYRVPRSYPKSNSSKEYV [chain 1 R81A Y149A]
0.7 a.u. | 0.91 a.u. | MANSGLQLLGFSMALLGWVGLVACTAIPQWQMSSYAGDNIITAQAMYKGLWMDCVTQSTGMMSCKMYDSVLALSAALQATAALMVVSLVLGFLAMFVATMGMKCTRCGGDDKVKKARIAMGGGIIFIVAGLAALVACSWYGHQIVTDFYNPLIPTNIKYEFGPAIFIGWAGSALVILGGALLSCSCPGNESKAGYRVPRSYPKSNSSKEYV [chain 1 R81A]
0.87 a.u. | 0.86 a.u. | MANSGLQLLGFSMALLGWVGLVACTAIPQWQMSSYAGDNIITAQAMYKGLWMDCVTQSTGMMSCKMYDSALALSAALQATAALMVVSLVLGFLAMFVATMGMKCTRCGGDDKVKKARIAMGGGIIFIVAGLAALVACSWYGHQIVTDAANPLIPTNIKYAAGPAIFIGWAGSALVILGGALLSCSCPGNESKAGYRVPRSYPKSNSSKEYV [chain 1 V70A R81A F148A Y149A E160A F161A]
0.38 a.u. | 0.87 a.u. | MANSGLQLLGFSMALLGWVGLVACTAIPQWQMSSYAGDNIITAQAMYKGLWMDCVTQSTGMMSCKMYDSVLALSAALQATRALMVVSLVLGFLAMFVATMGMKCTRCGGDDKVKKARIAMGGGIIFIVAGLAALVACSWYGHQIVTDAYNPLIPTNIKYEFGPAIFIGWAGSALVILGGALLSCSCPGNESKAGYRVPRSYPKSNSSKEYV [chain 1 F148A]
0.67 a.u. | 0.96 a.u. | MANSGLQLLGFSMALLGWVGLVACTAIPQWQMSSYAGDNIITAQAMYKGLWMDCVTQSTGMMSCKMYDSVLALSAALQATRALMVVSLVLGFLAMFVATMGMKCTRCGGDDKVKKARIAMGGGIIFIVAGLAALVACSWYGHQIVTDFANPLIPTNIKYEFGPAIFIGWAGSALVILGGALLSCSCPGNESKAGYRVPRSYPKSNSSKEYV [chain 1 Y149A]
0.39 a.u. | 0.8 a.u. | MANSGLQLLGFSMALLGWVGLVACTAIPQWQMSSYAGDNIITAQAMYKGLWMDCVTQSTGMMSCKMYDSALALSAALQATRALMVVSLVLGFLAMFVATMGMKCTRCGGDDKVKKARIAMGGGIIFIVAGLAALVACSWYGHQIVTDFYNPLIPTNIKYEFGPAIFIGWAGSALVILGGALLSCSCPGNESKAGYRVPRSYPKSNSSKEYV [chain 1 V70A]
0.38 a.u. | 0.87 a.u. | MANSGLQLLGFSMALLGWVGLVACTAIPQWQMSSYAGDNIITAQAMYKGLWMDCVTQSTGMMSCKMYDSVLALSAALQATRALMVVSLVLGFLAMFVATMGMKCTRCGGDDKVKKARIAMGGGIIFIVAGLAALVACSWYGHQIVTDFYNPLIPTNIKYAFGPAIFIGWAGSALVILGGALLSCSCPGNESKAGYRVPRSYPKSNSSKEYV [chain 1 E160A]
0.39 a.u. | 0.85 a.u. | MANSGLQLLGFSMALLGWVGLVACTAIPQWQMSSYAGDNIITAQAMYKGLWMDCVTQSTGMMSCKMYDSVLALSAALQATRALMVVSLVLGFLAMFVATMGMKCTRCGGDDKVKKARIAMGGGIIFIVAGLAALVACSWYGHQIVTDFYNPLIPTNIKYEAGPAIFIGWAGSALVILGGALLSCSCPGNESKAGYRVPRSYPKSNSSKEYV [chain 1 F161A]
